Results from patent US7279304B2, “Methods for preparation of macrocyclic molecules and macrocyclic molecules prepared thereby” (President and Fellows of Harvard College, priority 2000, dated 2007).

Legend:
Test in all cases: purified protein, by the assay type
Format in all cases: biochemical
[1] = substrate: CC(=O)NCCSC(=O)[C@H](C)NC(=O)[C@H](CCCN)NC(=O)[C@@H](NC(=O)[C@H](Cc1ccc(O)cc1)NC(=O)[C@H](CCC(N)=O)NC(=O)[C@H](CC(N)=O)NC(=O)[C@@H](Cc1ccccc1)NC(=O)[C@H](Cc1ccccc1)NC(=O)[C@@H]1CCCN1C(=O)[C@H](N)Cc1ccccc1)C(C)C; conditions: other: Table 1; macrocyclization of peptide-SNAC substrate; 25 mM MOPS, pH 7.0
Experimental: (§1) Macrocyclization reactions were carried out in 25 mM MOPS, pH 7.0 in a total volume of 400 μL. Reactions were initiated by addition of TycC TE and quenched at various time points by the addition of 25 μL 1.7% TFA/water, flash frozen in liquid nitrogen and stored at −80° C. (for Ex. 13, reactions were quenched by the addition of sodium phosphate, pH 5.3, to 100 mM). The reactions were then thawed, 85 μL acetonitrile added, and analyzed by analytical HPLC with monitoring at 220 nm (20% to 80% acetonitrile in 0.1% TFA/water, or in 25 mM potassium phosphate, pH 5.3 for Ex. 13, over 35 minutes, Vydac protein and peptide C18 column). Initial rates were calculated using 1 minute time points. Peptide-SNAC and reaction product concentrations were determined for all Tyr-containing peptides based on the estimated extinction coefficient ε (280 nm)=1,280 M^−1 cm^−1, which agrees with the experimentally determined ε (280 nm) of Ex. 1. For peptide-SNACs not containing Tyr, ε (220 nm) was determined experimentally, and concentrations of corresponding cyclic products determined by assuming equal ε (220 nm) values for the peptide-SNAC and cyclic product.

[2] = substrate: CC(=O)NCCSC(=O)[C@H](CC(C)C)NC(=O)[C@H](CCC(=O)O)NC(=O)[C@@H](NC(=O)[C@H](Cc1ccc(O)cc1)NC(=O)[C@H](CCC(N)=O)NC(=O)[C@H](CC(N)=O)NC(=O)[C@@H](Cc1ccccc1)NC(=O)[C@H](Cc1ccccc1)NC(=O)[C@@H]1CCCN1C(=O)[C@H](N)Cc1ccccc1)C(C)C; conditions: other: Table 1; macrocyclization of peptide-SNAC substrate; 25 mM MOPS, pH 7.0
Experimental: as §1

[3] = substrate: CC(=O)NCCSC(=O)[C@H](CC(C)C)NC(=O)[C@H](CCCN)NC(=O)[C@@H](Cc1ccccc1)NC(=O)[C@H](CC(C)C)NC(=O)[C@H](CCCN)NC(=O)[C@H](N)Cc1ccccc1; conditions: other: Table 2; cyclization of peptide-SNAC substrates of 6-14 amino acids
Experimental: as §1

[4] = substrate: CC(=O)NCCSC(=O)[C@H](CC(C)C)NC(=O)[C@H](CCCN)NC(=O)[C@@H](NC(=O)[C@H](CC(C)C)NC(=O)[C@@H](NC(=O)[C@@H]1CCCN1C(=O)[C@@H](Cc1ccccc1)NC(=O)[C@H](CC(C)C)NC(=O)[C@H](CCCN)NC(=O)[C@@H](NC(=O)[C@H](CC(C)C)NC(=O)[C@@H](NC(=O)[C@@H]1CCCN1C(=O)[C@H](N)Cc1ccccc1)C(C)C)C(C)C)C(C)C)C(C)C; conditions: other: Table 2; cyclization of peptide-SNAC substrates of 6-14 amino acids
Experimental: as §1

[5] = substrate: CC(=O)NCCSC(=O)[C@H](CC(C)C)NC(=O)[C@H](CCCN)NC(=O)[C@@H](NC(=O)[C@H](Cc1ccc(O)cc1)NC(=O)[C@H](C)NC(=O)[C@H](CC(N)=O)NC(=O)[C@@H](Cc1ccccc1)NC(=O)[C@H](Cc1ccccc1)NC(=O)[C@@H]1CCCN1C(=O)[C@H](N)Cc1ccccc1)C(C)C; conditions: other: Table 1; macrocyclization of peptide-SNAC substrate; 25 mM MOPS, pH 7.0
Experimental: as §1

[6] = substrate: CC(=O)NCCSC(=O)[C@H](CC(C)C)NC(=O)[C@H](CCCN)NC(=O)[C@@H](NC(=O)[C@H](Cc1ccc(O)cc1)NC(=O)[C@H](CCC(N)=O)NC(=O)[C@H](C)NC(=O)[C@@H](Cc1ccccc1)NC(=O)[C@H](Cc1ccccc1)NC(=O)[C@@H]1CCCN1C(=O)[C@H](N)Cc1ccccc1)C(C)C; conditions: other: Table 1; macrocyclization of peptide-SNAC substrate; 25 mM MOPS, pH 7.0
Experimental: as §1

[7] = substrate: CC(=O)NCCSC(=O)[C@H](CC(C)C)NC(=O)[C@H](CCCN)NC(=O)[C@@H](NC(=O)[C@H](Cc1ccc(O)cc1)NC(=O)[C@H](CCC(N)=O)NC(=O)[C@H](C)NC(=O)[C@H](CC(N)=O)NC(=O)[C@@H](Cc1ccccc1)NC(=O)[C@H](Cc1ccccc1)NC(=O)[C@@H]1CCCN1C(=O)[C@H](N)Cc1ccccc1)C(C)C; conditions: other: Table 1; macrocyclization of peptide-SNAC substrate; 25 mM MOPS, pH 7.0
Experimental: as §1

[8] = substrate: CC(=O)NCCSC(=O)[C@H](CC(C)C)NC(=O)[C@H](CCCN)NC(=O)[C@@H](NC(=O)[C@H](Cc1ccc(O)cc1)NC(=O)[C@H](CCC(N)=O)NC(=O)[C@H](CC(N)=O)NC(=O)[C@@H](Cc1ccccc1)NC(=O)[C@H](Cc1ccccc1)NC(=O)[C@H](C)NC(=O)[C@H](N)Cc1ccccc1)C(C)C; conditions: other: Table 1; macrocyclization of peptide-SNAC substrate; 25 mM MOPS, pH 7.0
Experimental: as §1

[9] = substrate: CC(=O)NCCSC(=O)[C@H](CC(C)C)NC(=O)[C@H](CCCN)NC(=O)[C@@H](NC(=O)[C@H](Cc1ccc(O)cc1)NC(=O)[C@H](CCC(N)=O)NC(=O)[C@H](CC(N)=O)NC(=O)[C@H](Cc1ccccc1)NC(=O)[C@@H]1CCCN1C(=O)[C@H](N)Cc1ccccc1)C(C)C; conditions: other: Table 1; macrocyclization of peptide-SNAC substrate; 25 mM MOPS, pH 7.0
Experimental: as §1

[10] = substrate: CC(=O)NCCSC(=O)[C@H](CC(C)C)NC(=O)[C@H](CCCN)NC(=O)[C@H](C)NC(=O)[C@H](Cc1ccc(O)cc1)NC(=O)[C@H](CCC(N)=O)NC(=O)[C@H](CC(N)=O)NC(=O)[C@@H](Cc1ccccc1)NC(=O)[C@H](Cc1ccccc1)NC(=O)[C@@H]1CCCN1C(=O)[C@H](N)Cc1ccccc1; conditions: other: Table 1; macrocyclization of peptide-SNAC substrate; 25 mM MOPS, pH 7.0
Experimental: as §1

B1: TycC TE (excised TE domain protein from the tyrocidine NRPS) (Brevibacillus parabrevis) (protein)
chain: FESRYGTAILLNQETARNVFCFTPIGAQSVYYQKLAAEIQGVSLYSFDFIQDDNRMEQYIAAITAIDPSGPYTLMGYSSGGNLAFEVAKELEERGYGVTDIILFDSYWKDKAIERTVAETENDIAQLFAEIGENTEMFNMTQEDFQLYAANEFVKQSFVRKTVSYVMFHNNLVNTGMTTAAIHLIQSELEADEEAPVAAKWNESAWANATQRLLTYSGHGIHSRMLAGDYASQNASILQNILQELFILK
notes: excised TE domain protein from the tyrocidine NRPS (TycC TE); made in house
Which Km [1] does the source give for B1 here?
Its Km is 6 µM.

And the Km [2]?
The Km was 56 µM.

What about the Km [3] of the same protein?
The Km was 4 µM.

And the kcat [3]?
Its kcat is 0.5 s⁻¹.

And the Km [4]?
Its Km is 5 µM.

What about the kcat [4] of the same protein?
Its kcat is 0.1 s⁻¹.

And the Km [5]?
Its Km is 4 µM.

And the Km [6]?
Its Km is 6 µM.

And the Km [7]?
The Km was 20 µM.

What about the Km [8] of the same protein?
The Km was 3 µM.

And the Km [9]?
The Km was 6 µM.

What about the Km [10] of the same protein?
The Km was 9 µM.
